Data on four compounds can be found in PMC5593958, “Dissecting the link between the enzymatic activity and the SaPI inducing capacity of the phage 80α dUTPase” (Scientific Reports, 2017).

pKd: −log10 of the molar value.

In one data set the target is T1, Dut80α (Dubowvirus dv80alpha, UniProt A4ZF98).
T1 construct: pET28a, His-tagged, E. coli BL21 (DE3), HisTrap and size exclusion; homotrimer; last residues cited about 170
The data set is described as follows: thermal shift (Sypro Orange). Format: binding. The conditions noted are these: 1 mM dUPNPP, 5 mM MgCl2, 10 μM protein, 75 mM HEPES pH 7.5, 250 mM NaCl; absolute Tm, not a shift; decimal comma as printed. The text has this: thermal shift (Sypro Orange) on Dut80α

In data set [1] the test system is O=c1ccn([C@H]2C[C@H](O)[C@@H](COP(=O)(O)OP(=O)(O)OP(=O)(O)O)O2)c(=O)[nH]1. The data set is described as follows: malachite green phosphate assay. The conditions noted are these: pH 7.5. Format: biochemical, Dubowvirus dv80alpha. The text has this:
malachite green phosphate assay on Dut80α

In data set [2] the target is phage 80α dUTPase D95E mutant (Dut80α D95E) (Staphylococcus aureus phage 80α). The data set is described as follows: BLI.
Data set [3] has the same target. The data set is described as follows: crystal structure.

As for `O=c1ccn([C@H]2C[C@H](O)[C@@H](COP(=O)(O)NP(=O)(O)OP(=O)(O)O)O2)c(=O)[nH]1` [dUPNPP, 2′-Deoxyuridine-5′-[(α,β)-imido]triphosphate], the “Thermal Unfolding (°C) / +dUPNPP” value at Dut80α was 58 ± 0,09.
Broadly, the Km is the substrate concentration at which the rate is half of its maximum. As to (Dubowvirus dv80alpha), the Km in data set [1] was 7.5 µM.
For orientation: pKd means the Kd on a negative log10 scale, so that one unit is a factor of ten. With “Stl repressor from SaPIbov1 (natural protein)”, the negative logarithm of the Kd (pKd) in data set [2] was less than 3.00.
For orientation: stoichiometry N means a count of units in the complex or per binding partner. Compound “phage 80α dUTPase D95E mutant (Dut80α D95E) (enzyme)” came in with a stoichiometry N in data set [3] of 3.
